As usually defined, the EC50 is the concentration that produces a half-maximal response.

The source of these data is patent publication US20240218057A1 (ROCKEFELLER UNIVERSITY, published 2024).

Substitutions are numbered along the chain they refer to.

This assay addresses T1, SARS-COV-2 RBD (SARS-COV-2, UniProt P0DTC2 319-539).
T1 construct: also called WT RBD
Briefly: ELISA, RBD coated.

B1: C873 (antibody, V domains shown)
VH: QVQLVQSGPEVKKPGASVKVSCKASGYIFTDYSIHWVRQAPGQGLEWMGWINPNSGGGNSAQIFKGRATMARDTSITTVYMDLSGLRSDDTAVYYCARGPLFHKVVYESSSGFHDGLDFWGQGTMVTVSS
VL: QSALTQPASVSGSPGQSVTISCTGTSSDVGGYNFLSWYQQHPGKAPKLLLYEVINRPSGVSDRFSGSKSGNTASLTISGLQAEDEADYYCNSYTSNFTWVFGGGTHLTV
notes: IgG; V domains only
On to B1, for which the EC50 was 4.05 ng/mL.

B2: C866 (antibody, V domains shown)
VH: EVQLVESGGGLVQPGRSLRLSCVASGFEFEDYGMHWVRQVPGKGLEWVSGISWNSASVGYADSVRGRFTISRDNAKNSLYLQMNSLRAEDTALYYCGKQINEWSHFLDYWGQGTLVTVSS
VL: DIQLTQSPSSVSASVGDRVTITCRASQGISNWLAWYQKKPGKAPKLLIYATSSLQSGVPSRFSGSGSETDFTLTIRSLQPEDFATYYCQQANSYPLTFGQGTKLEIK
notes: IgG; V domains only
In turn, B2 yielded an EC50 of 2 ng/mL.

B3: C877 (antibody, V domains shown)
VH: EVQLVESGGGLIPPGGSLRLSCAASGIIVSRNYMSWVRQTPGKGLEWVSVMYAGGTKEYADSVKGRFIISRDDSNNTLYLQMNSLRAEDTAVYYCARDLIVLGVDVWGQGTTVTVSS
VL: DIQLTQSPSFLSASVGDRVTITCRASQGISNYLAWYQQKPGKAPKLLIYAASTLQSGVPSRFSGSGSGTEFTLTISSLQPEDFATYYCQLLNSYPMCSFGQGTKLEIK
notes: IgG; V domains only
B3 displayed an EC50 of 2.53 ng/mL. The EC50 values of the last two molecules are within 1.5-fold of each other.

B4: C871 (antibody, V domains shown)
VH: EVQLVESGGGLIQTGGSLKLSCAASGFIVTNNYMSWVRQAPGKGLEWVSVIYSGGTTYYADSVKGRFTISRDISKNTLYLQMNSLKAEDTAVYYCAREGDVEGISDSWSGYSRDRYYFDHWGQGTLVTVSS
VL: QSALTQPASVSGSPGQSITISCTGTSSDVGGYNYVSWYQQHPGKAPKLMIYDVSNRPPTISNRFSGSKSGNTASLIISGLQPEDEADYYCSSFTSNNTRVFGTGTKVTVL
notes: IgG; V domains only
The molecule B4 came in with an EC50 of 1.52 ng/mL. Compared with the last molecule, the EC50 is about 1.7-fold lower.

B5: C870 (antibody, V domains shown)
VH: EVQLVESGGGLVQPGKSLRLSCAGSGFAFSSYHMNWVRQAPGKGLEWVAYISSGSSTIHYADSVKGRFTISRDNAKNSFYLQMNSLRAEDTALYYCARAIVGTKGYMDVWGKGTTVTVSS
VL: QSALTQPASVSGSPGQSVTISCTGTRSDVGSYDLVSWYQLHADKAPKLIIYEVTSRPSGISTRFSGSKSGNTASLTISGLQAEDEADYYCCSYAGTTWLFGGGTRLTVL
notes: IgG; V domains only
The molecule B5 gave an EC50 of 2.17 ng/mL.

B6: C869 (antibody, V domains shown)
VH: QVQLVESGGGVVQPGTSLRLSCAASGFTFSSFGMNWVRQAPGKGLEWVAVIFFDGSKTYYADSVKGRFTISRDNSKNTLYLQMNSLRTEDTAVYYCAKGQLRLGEFDDYWGQGTLVTVSS
VL: DIQMTQSPSSLSASVGDRVTITCRASQDIRDDLNWYQHKPGKAPKLLIYTASSLQSGVPSRFSGSGSGTDFTLTISRLQPEDFASYYCLQDHNYPLTFGQGTKLEIK
notes: IgG; V domains only
In turn, B6 gave an EC50 of 3.14 ng/mL. This EC50 and that of the molecule before are within 1.5-fold of each other.

B7: C862 (antibody, V domains shown)
VH: QVQLQESGPGLVKPSQTLSLTCTVSGASISSSEHYWSWIRQPPGKGLEWIGYISYSGGTYQNPSLQSRMTLSMDASKNQFSLKLSSVTAADTAVYFCARLNTMIVMINGVFDVWGQGTMVTVSS
VL: DIQMTQSPSSLSAFVGDRVTITCQASQDINKYVNWYQQKPGKAPKLLIYDASNLQTGVPSRFSGSGSGTHFTFTISSLQPEDFATYYCQEYDNLFSISFGQGTRLEIK
notes: IgG; V domains only
For the molecule B7, the EC50 was found to be 2.14 ng/mL.

B8: C885 (antibody, V domains shown)
VH: QVQLQESGPGLVKPSQTLSLTCAVSGDSIRSGGYYWSWVRQHPGRGLEWIGYIYFSGTTYYNPSLKSRVTISVDTSEKQFSLKLTSVTDADTAVYFCARVKGWLRGYFDYWGQGALVTVSS
VL: NFMLTQSHSVSESPGKTVTISCTGSSGNIVNNYVQWYQQRPGSAPIIVIYEDTQRPSGVPDRFSGSIDTSSNSASLTISGLKTEDEADYYCQSYDSGSHVVFGGGTKLTV
notes: IgG; V domains only
Take B8: the EC50 came to 7.45 ng/mL.

B9: C879 (antibody, V domains shown)
VH: QVQLQESGPGLVKPSQTLSLTCGVSGDSISSGGHFWSWVRQHPGTGLEWIAYSPFSGTTYYNPSLKSRVTLSVDTSKNQFFLSLTSVTDADTAVYFCARVKGWLRGYFDHWGQGVLVTVSS
VL: B8 VL with S7P, G24A, T53A, D95E, S96I, G97D, K107R
notes: IgG; V domains only
B9: the EC50 is 4.25 ng/mL.

B10: C868 (antibody, V domains shown)
VH: QVQLQESGPRLVKPSETLSLTCIVSGGSVSSNNFYWSWIRQPPGKRLEWIGYFYNSGSSKYNPSLKSRVTISGDTSKNQFSLKLSSVTAADTAVYYCARETFFYDRTGHYKSDGFDVWGQGTMVTVSS
VL: DIQMTQSPSTLSASVGDRVTISCRASQNISSWLAWYQQEAGKAPKLLIYKASSLESGVPSRFSGSGSGTEFTLTISSLQPGDFATYYCQQYNIYSYTFGQGTKLEIK
notes: IgG; V domains only
As for B10, a half-maximal response (EC50) required 3.39 ng/mL.

B11: C894 (antibody, V domains shown)
VH: EVQLVQSGAEVKKPGESLRISCKGSGYSFTGYWISWVRQMPGKGLEWMGRIDPSDSYTNYSPSFEGHVTFSADTALSTAYLQWSSLQASDTAIYFCGRIAPPGRGSYYPTQNYMDVWGKGTTVTVSS
VL: EIVLTQSPGTLSLSPGERATLSCTADQSVPNSYLAWYQHKPGQAPRLLIYGASSRATGIPDRFSGSGSGIDFTLTISRLEPEDFAVYYCQQYGSLLLTFGGGTKVEIK
notes: IgG; V domains only
In the case of B11, the EC50 amounted to 16.8 ng/mL.

B12: C865 (antibody, V domains shown)
VH: EVQLLESGGGLVQPGGSLRLSCVASRFIFSRYALSWVRQAPGKGLEWVSGISGSGHSTHYADSVTGRFTISRDNSKNTVYLQMSSLRAEDTAVYYCAKGPRSNYDYFESWGQGTLVTVSS
VL: DIQLTQSPSSLSASVGDRVTITCRASQGISSALAWYQQRPGKAPRLLIYDASSLDSGVPSRFSGSGSGTDFTLTISSLQSEDFATYYCQQFINNPLTFGGGTKVEIK
notes: IgG; V domains only
B12: the EC50 is 2.14 ng/mL.

B13: C867 (antibody, V domains shown)
VH: QVQLQESGPGLVKSSETLSLTCTVSSGSVRSGGYYWSWIRHHPGKGLEWIGYIFYTGITYYNPSLKSRVIVSVDPSKNQFSLNLTSVTAADTAVYYCASTPYTNGGAFHIWGQGTMVTVSS
VL: QSALTQPPSASGSPGQSVTISCTGTSSDVGGHNYVSWYQQFPGKAPKLIIYDVNKRPSGVPDRFSGSKSANTASLTVSGLQAEDEADYHCSSYAGSNNWVFGGGTKLTVL
notes: IgG; V domains only
For B13, the EC50 was 2.71 ng/mL.

B14: C872 (antibody, V domains shown)
VH: EVQLVESGGGLIQPGGSLRLSCAASGFIVSNNYISWVRQAPGKGLEWVSVIYSGGTTYYADSVKGRFSISRDTSKNTVYLQINNLRAEDTAVYYCAREGDVDGNYGFWSGYSRDRYYFDYWGQGTLVTVSS
VL: QSALTQPASVSGSPGQSITISCTGTSSDVGAYNYVAWYQQHPGKAPKLMVYDVSKRPSGVSNRFSGSKSGNTASLTISGLQTEDEGDYYCCSYTTNTTRVFGTGTMLTVL
notes: IgG; V domains only
For B14, the EC50 was found to be 2.19 ng/mL. This EC50 and that of the molecule before are within 1.5-fold of each other.

B15: C875 (antibody, V domains shown)
VH: QVQLVQSGAEVKQPGASVKISCKASGYIFTTYFMHWVRQAPGQGLEWLGIIDPTISGASLAQKFQGRVTMTSDTSTSTVYMEMRSLRSDDTALYFCARASTSTSSWSEALSLGSWGQGTLVTVSS
VL: QSVLTQPPSVSGAPGQGVSISCTGSSSNVGAGYGVHWYQQLPGTTPKLLIYDNNSRPAGVPDRFSGSKSGTSASLAIAGLQPEDEADYYCQSWDNGLSGSGVVFGGGTKVTVL
notes: IgG; V domains only
On to B15, for which the EC50 amounted to 3.5 ng/mL.
